Laboratory results published in paper PMC9898670, “A solution structure analysis reveals a bent collagen triple helix in the complement activation recognition molecule mannan-binding lectin” (The Journal of Biological Chemistry, 2022).
Non-standard residues stand in square brackets, D forms with d. Hyp = O=C(O)[C@@H]1C[C@@H](O)CN1

B1: MBL-N (MBL native) collagen peptide, Ac-(POG)4-EPGQGLRG-(POG)3-NH2 (peptide)
peptide: Ac-P[Hyp]GP[Hyp]GP[Hyp]GP[Hyp]GEPGQGLRGP[Hyp]GP[Hyp]GP[Hyp]G-NH2
SMILES: CC(=O)N1CCC[C@H]1C(=O)N1C[C@H](O)C[C@H]1C(=O)NCC(=O)N1CCC[C@H]1C(=O)N1C[C@H](O)C[C@H]1C(=O)NCC(=O)N1CCC[C@H]1C(=O)N1C[C@H](O)C[C@H]1C(=O)NCC(=O)N1CCC[C@H]1C(=O)N1C[C@H](O)C[C@H]1C(=O)NCC(=O)N[C@@H](CCC(=O)O)C(=O)N1CCC[C@H]1C(=O)NCC(=O)N[C@@H](CCC(N)=O)C(=O)NCC(=O)N[C@@H](CC(C)C)C(=O)N[C@@H](CCCNC(=N)N)C(=O)NCC(=O)N1CCC[C@H]1C(=O)N1C[C@H](O)C[C@H]1C(=O)NCC(=O)N1CCC[C@H]1C(=O)N1C[C@H](O)C[C@H]1C(=O)NCC(=O)N1CCC[C@H]1C(=O)N1C[C@H](O)C[C@H]1C(=O)NCC(N)=O
notes: (POG)4 written out; (POG)3 written out; Homotrimeric collagen triple helix
B2: T3-785 collagen peptide, Ac-(POG)3-ITGARGLAGPOG-(POG)3-NH2 (peptide)
peptide: Ac-P[Hyp]GP[Hyp]GP[Hyp]GITGARGLAGP[Hyp]GP[Hyp]GP[Hyp]GP[Hyp]G-NH2
SMILES: CC[C@H](C)[C@H](NC(=O)CNC(=O)[C@@H]1C[C@@H](O)CN1C(=O)[C@@H]1CCCN1C(=O)CNC(=O)[C@@H]1C[C@@H](O)CN1C(=O)[C@@H]1CCCN1C(=O)CNC(=O)[C@@H]1C[C@@H](O)CN1C(=O)[C@@H]1CCCN1C(C)=O)C(=O)N[C@H](C(=O)NCC(=O)N[C@@H](C)C(=O)N[C@@H](CCCNC(=N)N)C(=O)NCC(=O)N[C@@H](CC(C)C)C(=O)N[C@@H](C)C(=O)NCC(=O)N1CCC[C@H]1C(=O)N1C[C@H](O)C[C@H]1C(=O)NCC(=O)N1CCC[C@H]1C(=O)N1C[C@H](O)C[C@H]1C(=O)NCC(=O)N1CCC[C@H]1C(=O)N1C[C@H](O)C[C@H]1C(=O)NCC(=O)N1CCC[C@H]1C(=O)N1C[C@H](O)C[C@H]1C(=O)NCC(N)=O)[C@@H](C)O
notes: (POG)3 written out; Homotrimeric collagen triple helix; also called Type III T3-785 peptide
B3: MBL-12 (12 triplets) collagen peptide, Ac-(POG)5-EPGQGLRG-(POG)5-NH2 (peptide)
peptide: Ac-P[Hyp]GP[Hyp]GP[Hyp]GP[Hyp]GP[Hyp]GEPGQGLRGP[Hyp]GP[Hyp]GP[Hyp]GP[Hyp]GP[Hyp]G-NH2
SMILES: CC(=O)N1CCC[C@H]1C(=O)N1C[C@H](O)C[C@H]1C(=O)NCC(=O)N1CCC[C@H]1C(=O)N1C[C@H](O)C[C@H]1C(=O)NCC(=O)N1CCC[C@H]1C(=O)N1C[C@H](O)C[C@H]1C(=O)NCC(=O)N1CCC[C@H]1C(=O)N1C[C@H](O)C[C@H]1C(=O)NCC(=O)N1CCC[C@H]1C(=O)N1C[C@H](O)C[C@H]1C(=O)NCC(=O)N[C@@H](CCC(=O)O)C(=O)N1CCC[C@H]1C(=O)NCC(=O)N[C@@H](CCC(N)=O)C(=O)NCC(=O)N[C@@H](CC(C)C)C(=O)N[C@@H](CCCNC(=N)N)C(=O)NCC(=O)N1CCC[C@H]1C(=O)N1C[C@H](O)C[C@H]1C(=O)NCC(=O)N1CCC[C@H]1C(=O)N1C[C@H](O)C[C@H]1C(=O)NCC(=O)N1CCC[C@H]1C(=O)N1C[C@H](O)C[C@H]1C(=O)NCC(=O)N1CCC[C@H]1C(=O)N1C[C@H](O)C[C@H]1C(=O)NCC(=O)N1CCC[C@H]1C(=O)N1C[C@H](O)C[C@H]1C(=O)NCC(N)=O
notes: (POG)5 written out; Homotrimeric collagen triple helix
B4: MBL-E (MBL EOG) collagen peptide, Ac-(POG)5-EOGQGLRG-(POG)3-NH2 (peptide)
peptide: Ac-P[Hyp]GP[Hyp]GP[Hyp]GP[Hyp]GP[Hyp]GE[Hyp]GQGLRGP[Hyp]GP[Hyp]GP[Hyp]G-NH2
SMILES: CC(=O)N1CCC[C@H]1C(=O)N1C[C@H](O)C[C@H]1C(=O)NCC(=O)N1CCC[C@H]1C(=O)N1C[C@H](O)C[C@H]1C(=O)NCC(=O)N1CCC[C@H]1C(=O)N1C[C@H](O)C[C@H]1C(=O)NCC(=O)N1CCC[C@H]1C(=O)N1C[C@H](O)C[C@H]1C(=O)NCC(=O)N1CCC[C@H]1C(=O)N1C[C@H](O)C[C@H]1C(=O)NCC(=O)N[C@@H](CCC(=O)O)C(=O)N1C[C@H](O)C[C@H]1C(=O)NCC(=O)N[C@@H](CCC(N)=O)C(=O)NCC(=O)N[C@@H](CC(C)C)C(=O)N[C@@H](CCCNC(=N)N)C(=O)NCC(=O)N1CCC[C@H]1C(=O)N1C[C@H](O)C[C@H]1C(=O)NCC(=O)N1CCC[C@H]1C(=O)N1C[C@H](O)C[C@H]1C(=O)NCC(=O)N1CCC[C@H]1C(=O)N1C[C@H](O)C[C@H]1C(=O)NCC(N)=O
notes: (POG)5 written out; (POG)3 written out; Homotrimeric collagen triple helix; form used in AUC, SAXS and SANS; The CD and DSC runs used a form with one POG triplet fewer

Experiments:
[1] = molecular target: the molecule itself; assay: circular dichroism; spectra 190-260 nm and melting curves at 226 nm from 0 to 70 °C, average heating rate 0.1 °C/min
[2] = molecular target: the molecule itself; assay: AUC; sedimentation velocity, 50,000 rpm, 20 °C, 137 mM PBS pH 7.4 or 20 mM L-histidine pH 6.0 in H2O (10 peptides, 0.2-2.5 mg/ml) and 20 mM L-histidine in 2H2O (six peptides, 0.75-4 mg/ml); c(s) analysis with SEDFIT; peptides equilibrated for at least 48 h at room temperature to assemble into triple helices

Protein | binding result [1] | binding result [2]
B1 | binds | –
B2 | – | binds
B3 | binds | –
B4 | – | binds
